Data as given in article PMC8692609, “Native mass spectrometry identifies the HybG chaperone as carrier of the Fe(CN)2CO group during maturation of E. coli [NiFe]-hydrogenase 2” (Scientific Reports, 2021).

B1: StrepII-tagged HybG (natural protein, E. coli, UniProt P0AAM7 1-82, looked up)
chain: MCIGVPGQVLAVGEDIHQLAQVEVCGIKRDVNIALICEGNPADLLGQWVLVHVGFAMSIIDEDEAKATLDALRQMDYDITSA
modifications: populations with a +26 Da modification on the N-terminal cysteinyl residue, a further +44 Da (CO2) modification, or the Fe(CN)2CO group (+136 Da; only on HybG dissociated from the native HybG-HypD complex)
notes: HybG, HypC-family hydrogenase maturation chaperone of Escherichia coli; the N-terminal residue of the protein is the cysteine that is formally amino acid position 2; Deconvoluted mass of the unmodified tagged protein is printed as 9615 Da; also called StrepII-HybG; native HybG; not shown: StrepII, C-terminal, kept

Columns and labels:
StrepII-tagged HybG [1] = target: B1; assay: native MS; isolated StrepII-HybG–HypD complex; 500 mM ammonium acetate pH 6.8, about 10 uM protein, nano-ESI Q-TOF, collision energy 40 V; CID-MS/MS of the 13+ ion at 80 V; details: both partners purified
[2] = target: the molecule itself; assay: native MS; purified N-terminally His-tagged pre-HybC supplemented with equimolar amounts of StrepII-HybG; 500 mM ammonium acetate pH 6.8; CID-MS/MS of the 16+ complex ion
StrepII-tagged HybG [3] = target: B1; assay: as above; details: both partners purified

Binder | stoichiometry N (StrepII-tagged HybG [1]) | stoichiometry N [2] | stoichiometry N (StrepII-tagged HybG [3])
HypD (natural protein, E. coli, UniProt P24192 1-373, looked up, HypD, iron-sulfur cluster-containing hydrogenase maturation protein of Escherichia coli; untagged; Carries a 4Fe-4S cluster; Untagged unless stated otherwise; also called HypD scaffold protein) MRFVDEYRAPEQVMQLIEHLRERASHLSYTAERPLRIMEVCGGHTHAIFKFGLDQLLPENVEFIHGPGCPVCVLPMGRIDTCVEIASHPEVIFCTFGDAMRVPGKQGSLLQAKARGADVRIVYSPMDALKLAQENPTRKVVFFGLGFETTMPTTAITLQQAKARDVQNFYFFCQHITLIPTLRSLLEQPDNGIDAFLAPGHVSMVIGTDAYNFIASDFHRPLVVAGFEPLDLLQGVVMLVQQKIAAHSKVENQYRRVVPDAGNLLAQQAIADVFCVNGDSEWRGLGVIESSGVHLTPDYQRFDAEAHFRPAPQQVCDDPRARCGEVLTGKCKPHQCPLFGNTCNPQTAFGALMVSSEGACAAWYQYRQQESEA | 1 HybG:HypD | – | –
N-terminally His-tagged pre-HybC (natural protein, E. coli, UniProt P0ACE0 1-567, looked up, HybC, large (catalytic) subunit of hydrogenase 2 of Escherichia coli, as the immature precursor that still has the C-terminal peptide removed on maturation; also called apo-form of the hydrogenase 2 catalytic subunit; hydrogenase 2 large-subunit precursor; source: E. coli (plasmid pCAN-hybC_(stop)), purified on cobalt-charged TALON Superflow agarose; not shown: His tag, N-terminal, kept) MSQRITIDPVTRIEGHLRIDCEIENGVVSKAWASGTMWRGMEEIVKNRDPRDAWMIVQRICGVCTTTHALSSVRAAESALNIDVPVNAQYIRNIILAAHTTHDHIVHFYQLSALDWVDITSALQADPTKASEMLKGVSTWHLNSPEEFTKVQNKIKDLVASGQLGIFANGYWGHPAMKLPPEVNLIAVAHYLQALECQRDANRVVALLGGKTPHIQNLAVGGVANPINLDGLGVLNLERLMYIKSFIDKLSDFVEQVYKVDTAVIAAFYPEWLTRGKGAVNYLSVPEFPTDSKNGSFLFPGGYIENADLSSYRPITSHSDEYLIKGIQESAKHSWYKDEAPQAPWEGTTIPAYDGWSDDGKYSWVKSPTFYGKTVEVGPLANMLVKLAAGRESTQNKLNEIVAIYQKLTGNTLEVAQLHSTLGRIIGRTVHCCELQDILQNQYSALITNIGKGDHTTFVKPNIPATGEFKGVGFLEAPRGMLSHWMVIKDGIISNYQAVVPSTWNSGPRNFNDDVGPYEQSLVGTPVADPNKPLEVVRTIHSFDPCMACAVHVVDADGNEVVSVKVL | – | 2 | 1 HybG:pre-HybC
B1 | – | 2 | –
